Molecular target: the molecule itself
Experiment: cryo-EM structure

Row | Protein | stoichiometry N
1 | P. savastanoi FliP (natural protein) ADPLSIPAITLSNGADGQQEYSVSLQILLIMTALSFIPAFVMLMTSFTRIIIVFSILRQALGLQQTPSNQILTGMALFLTMFIMAPVFDRVNQDALQPYLAEKLSAQDAVAKAQVPIKDFMLAQTRTSDLELFMRLSKRTDIPTPDAAPLTILVPAFVISELKTAFQIGFMIFIPFLIIDLVVASVLMAMGMMMLSPLIISLPFKIMLFVLVDGWALIVGTLAGSFGGV | 5
2 | P. savastanoi FliQ (natural protein, also called FliQ5) MTPEVAVDLFREALWLTTVLVAILVVPSLLCGLLVAMFQAATQINEQTLSFLPRLLVMLVTLIVIGPWLLKIFMEYMLSLYTSIPTLIG | 5

Source: doi:10.1101/686782 (bioRxiv, 2019)
